Two molecules from patent US20190177437A1 (SINGH MOLECULAR MEDICINE, published 2019) can be followed below.

For experiment [1], the target named is T1, active human TNF-α full length protein (human, UniProt P01375 77-233). As to the kind of experiment: ELISA, TNF coat 0.5 µg/mL, sdAb 1 µg/mL, anti-llama 1:5,000, HRP 1:25,000. A general note: In an ELISA, binding on a coated surface is turned into a signal by an enzyme label.
The target in experiment [2] is T1, active human TNF-α full length protein. In words: ELISA, TNF coat 0.5 µg/mL, sdAb 1 µg/mL, anti-llama 1:5,000, HRP 1:50,000.
For experiment [3] the target is unchanged. As to the kind of experiment: ELISA, TNF coat 0.25 µg/mL, sdAb 1 µg/mL, anti-llama 1:5,000, HRP 1:25,000.
Experiment [4] has the same target. As to the kind of experiment: ELISA, TNF coat 0.25 µg/mL, sdAb 1 µg/mL, anti-llama 1:5,000, HRP 1:50,000.
Experiment [5] has the same target. As to the kind of experiment: ELISA, TNF coat 0.5 µg/mL, sdAb 1 µg/mL, anti-llama 1:10,000, HRP 1:25,000.
The target is the same in experiment [6]. As to the kind of experiment: ELISA, TNF coat 0.5 µg/mL, sdAb 1 µg/mL, anti-llama 1:10,000, HRP 1:50,000.
For experiment [7] the target is unchanged. As to the kind of experiment: ELISA, TNF coat 0.125 µg/mL, sdAb 1 µg/mL, anti-llama 1:5,000, HRP 1:25,000.
Experiment [8] has the same target. In words: ELISA, TNF coat 0.125 µg/mL, sdAb 1 µg/mL, anti-llama 1:5,000, HRP 1:50,000.
Experiment [9] shares this target. As to the kind of experiment: ELISA, TNF coat 0.25 µg/mL, sdAb 1 µg/mL, anti-llama 1:10,000, HRP 1:25,000.
For experiment [10] the target is unchanged. As to the kind of experiment: ELISA, TNF coat 0.25 µg/mL, sdAb 1 µg/mL, anti-llama 1:10,000, HRP 1:50,000.
For experiment [11] the target is unchanged. As to the kind of experiment: ELISA, TNF coat 0.125 µg/mL, sdAb 1 µg/mL, anti-llama 1:10,000, HRP 1:25,000.
Experiment [12] shares this target. In words: ELISA, TNF coat 0.125 µg/mL, sdAb 1 µg/mL, anti-llama 1:10,000, HRP 1:50,000.
Experiment [13] shares this target.

T1 sequence (P01375 77-233 limits assumed): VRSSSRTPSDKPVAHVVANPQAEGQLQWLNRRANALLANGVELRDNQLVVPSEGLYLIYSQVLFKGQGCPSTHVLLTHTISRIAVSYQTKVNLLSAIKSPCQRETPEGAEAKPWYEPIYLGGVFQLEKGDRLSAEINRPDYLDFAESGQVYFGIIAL

B1: anti-TNF-α VHH69 (SEQ ID NO:46) sdAb (VHH)
VHH: EVQLVESGGGSVLAGGSLRLSCVASGFTSRYNYMAWFRQAPGKEREGVATIGTASGSADYYGSVKDRFTISQDNAKNTVYLQMNSLKPEDTAMYYCAARTYGTISLTPSDYRYWGQGTLVTVSS
For the molecule B1, the “Signal/Noise Ratio” value was 8 ratio in [1]; 7.5 ratio in experiment [2]; 3.2 ratio in [3]; 2.4 ratio in [4]; 5.9 ratio in [5]; 3.7 ratio in experiment [6]. Moreover, the “Signal/Noise Ratio” value in experiment [7] was 1.6 ratio; in [8], 1.6 ratio; in experiment [9] it was 2.1 ratio; in [10] it was 1.9 ratio; in experiment [11] it was 1.5 ratio; in experiment [12], 1.3 ratio.

B2: anti-TNF-α VHH62 (SEQ ID NO:47) sdAb (VHH)
VHH: QVQLVESGGGPVQAGETLRLSCTASGFTFAEADMGWYRQAPGHECELVSTITTEGITSEASSYYADSVRGRFTISRDNAKNMVYLQMNSLKPEDTAVYYCAPDPYAYSTYSDYCSWAQGTQGTLVTVSS
As for B2, the “Signal/Noise Ratio” value in [1] is 2 ratio; in [2], 1.9 ratio; in experiment [3], 1.5 ratio; in experiment [4] it was 1.4 ratio; in [5], 1.7 ratio; in experiment [6], 1.5 ratio. Besides, the “Signal/Noise Ratio” value in experiment [7] came out at 1.1 ratio; in experiment [8] it was 1.1 ratio; in experiment [9], 1.4 ratio; in experiment [10], 1.3 ratio; in [11], 1.1 ratio; in [12], 0.9 ratio. Further, the binding result in experiment [13] was “no binding (tested: 1 µg/mL)”.
